Laboratory results as given in PMC11182334 (Cell, 2024).

Key:
[1] = molecular target: recombinant untagged VP6 of bluetongue virus, wild type (bluetongue virus (serotype of the cDNA not stated)); test: cryo-EM structure
[2] = molecular target: T1, VP3 (WT, co-expressed with VP6);VP6 (WT) (Bluetongue virus;Bluetongue virus, UniProt D8V886;D8V892 1-901;1-329, |); test: cryo-EM
T1 sequence 1: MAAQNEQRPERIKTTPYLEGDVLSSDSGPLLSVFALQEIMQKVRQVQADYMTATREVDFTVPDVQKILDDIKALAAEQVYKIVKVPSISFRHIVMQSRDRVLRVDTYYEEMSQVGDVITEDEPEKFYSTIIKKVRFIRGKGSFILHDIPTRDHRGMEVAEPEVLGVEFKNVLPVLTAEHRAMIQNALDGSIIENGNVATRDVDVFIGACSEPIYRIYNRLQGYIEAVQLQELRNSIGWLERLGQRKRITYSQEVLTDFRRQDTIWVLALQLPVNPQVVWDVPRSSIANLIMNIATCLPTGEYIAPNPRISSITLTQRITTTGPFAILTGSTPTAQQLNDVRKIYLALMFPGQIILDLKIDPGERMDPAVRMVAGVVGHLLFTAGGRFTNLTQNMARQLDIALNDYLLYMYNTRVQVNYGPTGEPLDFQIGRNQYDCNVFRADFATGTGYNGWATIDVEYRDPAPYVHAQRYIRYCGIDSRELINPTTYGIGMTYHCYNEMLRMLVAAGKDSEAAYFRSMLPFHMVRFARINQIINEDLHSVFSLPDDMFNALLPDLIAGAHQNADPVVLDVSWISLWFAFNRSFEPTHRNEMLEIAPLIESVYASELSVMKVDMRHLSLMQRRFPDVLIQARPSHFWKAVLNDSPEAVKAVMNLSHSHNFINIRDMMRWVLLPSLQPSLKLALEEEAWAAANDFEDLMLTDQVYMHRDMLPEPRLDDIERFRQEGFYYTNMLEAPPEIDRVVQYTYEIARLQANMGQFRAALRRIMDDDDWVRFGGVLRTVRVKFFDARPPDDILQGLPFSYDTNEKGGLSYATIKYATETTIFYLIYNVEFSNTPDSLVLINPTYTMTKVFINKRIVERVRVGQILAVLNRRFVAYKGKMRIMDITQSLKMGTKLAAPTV
T1 sequence 2: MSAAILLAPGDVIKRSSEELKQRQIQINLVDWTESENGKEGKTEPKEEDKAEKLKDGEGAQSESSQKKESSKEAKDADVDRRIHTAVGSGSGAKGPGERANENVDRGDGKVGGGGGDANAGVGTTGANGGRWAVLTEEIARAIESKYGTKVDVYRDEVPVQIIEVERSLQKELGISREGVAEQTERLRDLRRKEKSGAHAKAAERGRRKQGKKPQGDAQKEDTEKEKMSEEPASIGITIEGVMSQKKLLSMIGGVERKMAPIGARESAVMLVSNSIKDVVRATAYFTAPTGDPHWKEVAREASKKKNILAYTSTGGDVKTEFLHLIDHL

SEC + AUC = molecular target: the molecule itself; test: SEC + AUC
cryo-EM structure = molecular target: the molecule itself; test: cryo-EM structure
[3] = molecular target: T1, VP3 (WT, co-expressed with VP6);VP6 (WT); test: EMSA

## recombinant untagged VP6 of bluetongue virus, wild type (natural protein)
[1]
  stoichiometry N: 5

## UUUUUUUUUUUUUUUUUUUUUUUUUUUUUUUUUUUUUUUU (ssRNA) [40 nt poly-U ssRNA]
[2]
  binding result: binds

B1: recombinant His-tagged VP3 of bluetongue virus, wild type (natural protein)
chain: MAAQNEQRPERIKTTPYLEGDVLSSDSGPLLSVFALQEIMQKVRQVQADYMTATREVDFTVPDVQQILDDIKALAAAQVYKIVKVPSTSFRHIVTQSRDRVLRVDTYYEEMSQVGDVITEDEPEKFYSTIIKKVRFIRGKGSFILHDIPARDHRGMEVAEPEVLGVEFKNVLPVLTAEHRAMIQNALDGSIIENGNVATRDVDVFIGACSEPFYRIYNRFQGYIEAVQLQELRNSIGWLERLGQRKRITYSQEVLTDFRRQDMIWVLALQLPVNPQVVWDVPRSSIANLIMNIATCLPTGEYIAPNPRISSITLTQRITTTGPFAILTGSTPTAQQLNDVRKIYLALMFPGQIILDLKIDPGERMDPAVRMVAGVVGHLLFTAGGRFTNLTQNMARQLDIALNDYLLYMYNTRVQVNYGPTGEPLDFQIGRNQYDCNVFRADFATGTGYNGWATIDVEYRDPAPYVHAQRYIRYCGIDSRELINPTTYGIGMTYHCYNEMLRMLVAAGKDSEAAYFRSMLPFHMVRFARINQIINEDLHSVFSLPDDMFNALLPDLIAGAHQNADPVVLDVSWISLWFAFNRSFEPTHRNEMLEIAPLIESVYASELSVMKVDMRHLSLMQRRFPDVLIQARPSHFWKAVLNDSPEAVKAVMNLSHSHNFINIRDMMRWVLLPSLQPSLKLVLEEEAWAAANDFEDLMLTDQVYMHRDMLPEPRLDDIERFRQEGFYYTNMLEAPPEIDRVVQYTYEIARLQANMGQFRAALRRIMDDDDWIGFGGVLRTVRVKFFDARPPDDILQGLPFSYDTNEKGGLSYATIKYATETTIFYLIYNVEFSNTPDSLVLINPTYTMTKVFINKRIVERVRVGQILAVLNRRFVAYKGKMRIMDITQSLKMGTKLAAPTV
SEC + AUC
  stoichiometry N: ~4
cryo-EM structure
  stoichiometry N: 4

## GUUAAAAAAUCGCAUA (ssRNA) [Cy5-labeled 16 nt ssRNA]
[3]
  apparent K (half saturation): 192 nM
